This assay has as its target BTN2A2-His tag protein (without Fc tag) (human) (UniProt Q8WVV5). As to the kind of experiment: MST.

One substance from article PMC12873404 can be followed below.

Consider “recombinant CD45RO-Fc protein (from UniProt P08575-4 26-1145) (Fc fusion)”, for which the Kd amounted to 63.5 nM.
